These results are taken from patent US20190092852A1.

Where a chain is given by its changes, count along the chain named.

To fix the notation:
T1: human IL-33 (R&D Systems, #3625-IL-010/CF) (human) (UniProt O95760)
T1 sequence (looked up): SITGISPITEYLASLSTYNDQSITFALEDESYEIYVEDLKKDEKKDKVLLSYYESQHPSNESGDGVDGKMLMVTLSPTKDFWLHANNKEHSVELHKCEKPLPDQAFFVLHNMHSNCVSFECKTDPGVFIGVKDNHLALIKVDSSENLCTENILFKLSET

T2: biotinylated human IL-33 (human) (UniProt O95760)
T2 sequence (biotin-labeled with EZ-LINK NHS-PEG4-Biotin, looked up): T1 sequence (looked up)

B1: H4H9672P (antibody, from another filing, IgG4, V domains shown)
VH: EVQLVESGGGLVQPGGSLRLSCAASGFTLRSYVMYWVRQGPGKGLEGVSGISGSSGGTYYTDSVKGRFTISRDNSKNTLFLQMNSLRAEDTAVYFCARSVYSTTWYGGFQHWGQGTLVTVSS
VL: DIQMTQSPSSVSVSVGDRVTITCRASQVISSWLAWYQLKPGKAPKLLIYAASSLQSGVPSRFSGSGSGTDFTLTISGLQPEDFAVYYCQQTNSFPLTFGGGTKVEIK
B2: H4H9660P (antibody, from another filing, IgG4, V domains shown)
VH: EVQLVESGGGLVQPGGSLRLSCAASGITLSSYGMSWVRQAPGKGLEWVASIFGSGGGPYYADSVKGRFTMSRDNSKNTLYLQMNSLRAEDTAVYYCAKDRYSGSYYGGFDYWGRGTLVTVSS
VL: DIQMTQSPSSVSASVGDRVTITCRASQGITSWLAWYQQKPGKAPTLLIYAASSLQTGVPSRFSGSGSGTDFTLTISSLQPEHFATYYCQQANSFPPTFGGGTKVEIK
B3: H4H9667P (antibody, from another filing, IgG4, V domains shown)
VH: EVQLVESGGGLVQPGGSLRLSCAASGFTFSTYSMHWVRQAPGKGLEYVSTINNNGDTTYYADSVKGRFTISRDNSKNTLYLQLGSLRPEDMAVYYCARQTYTSSWYGGFDSWGQGTLVTVSS
VL: B2 VL with T45K, S53N, T56S, S76T, H82D, F94L, P96F, G100P, E105D
B4: H4H9676P (antibody, from another filing, IgG4, V domains shown)
VH: EVQLVESGGGLVQPGGSLRLSCSASGFTFSSYAMNWVRQAPGKGLEWVTAISGSGGGTYYADSVKGRFTISRDNSKNSLFLQLNSLRAEDTAVYYCAKQTYTSSWYGGFDIWGQGTMVTVSS
VL: B2 VL with I29F, T30S, K39I, T45K, S53R, T56S, S63R, H82D, P96L
B5: cynomolgus monkey N-terminal 6-His-tagged and C-terminal Avi-tagged IL-33 (S112-T270) (ligand)
chain: MHHHHHHGENLYFQGSITGISPITESLASLSTYNDQSITFALEDESYEIYVEDLKKDKKKDKVLLSYYESQHPSSESGDGVDGKMLMVTLSPTKDFWLQANNKEHSVELHKCEKPLPDQAFFVLHNRSFNCVSFECKTDPGVFIGVKDNHLALIKVDYSENLGSENILFKLSETGNSGGGLNDIFEAQKIEWHE

For one test, the target named is T1, human IL-33 (R&D Systems, #3625-IL-010/CF) (human). Put plainly: SPR Biacore T200, 37 C. A general note: SPR reads the build-up and loss of mass on a sensor chip optically.
One may read the Kd as the equilibrium constant for the complex coming apart. As usually defined, the koff is a measure of how fast the partners let go of each other. High values mean a short-lived complex, low ones a long-lived complex. As usually defined, the kon is the second-order rate constant of association. Read a high kon as faster complex formation. B1 came in with a Kd of 0.531 nM, a dissociation rate constant (koff) of 0.00127 s⁻¹, a kon of 2.39e+06 M⁻¹ s⁻¹ and a t1/2 of 9 min.
B2: the dissociation constant (Kd) amounted to 0.302 nM, the koff amounted to 0.000413 s⁻¹, the kon is 1.37e+06 M⁻¹ s⁻¹ and the t1/2 was 28 min.
Regarding B3, the equilibrium dissociation constant (Kd) worked out at 0.411 nM, the koff came out at 0.000497 s⁻¹, the on-rate (kon) came out at 1.21e+06 M⁻¹ s⁻¹ and the t1/2 came out at 23 min.
B4 registered an equilibrium dissociation constant (Kd) of 0.457 nM, a koff of 0.00158 s⁻¹, an association rate constant (kon) of 3.47e+06 M⁻¹ s⁻¹ and a t1/2 of 7 min.

A further test has the same target.
Assay: not given
As to B2, the IC50; IFN-gamma ELISA, primary human NK cells, 260 pM hIL-33 + IL-12 came to 2.4e-10 M.
With B4, the IC50; IFN-gamma ELISA, primary human NK cells, 260 pM hIL-33 + IL-12 is 1.2e-09 M.

The next test has the same target.
Assay: not given
The source holds these as a separate data set.
In turn, B1 came in with a Ph-p38 MFI at 2 nM Ab (500 pM human IL-33, primary basophils) of 61 MFI.
Turning to B2, the Ph-p38 MFI at 2 nM Ab (500 pM human IL-33, primary basophils) amounted to 29 MFI.
In the case of B3, the Ph-p38 MFI at 2 nM Ab (500 pM human IL-33, primary basophils) came to 68 MFI.
Same read-out and setting: next, B4: 61 MFI.

The next test has as its target human ST2L on HEK-BLUE IL-33/IL-1beta cells (human) (UniProt Q01638).
Assay: not given
Regarding B5, the EC50 (SEAP reporter OD 620, HEK-BLUE IL-33/IL-1beta cells) is 0.021 nM.

In a further test the target is T1, human IL-33 (R&D Systems, #3625-IL-010/CF) (human).
Assay: not given
This is another data set of the same source.
On to B1, for which the IC50; SEAP reporter (OD 620), HEK-BLUE IL-33/IL-1beta cells, 10 pM hIL-33 was 9.8e-10 M.
On to B2, for which the IC50; SEAP reporter (OD 620), HEK-BLUE IL-33/IL-1beta cells, 10 pM hIL-33 is 3.8e-11 M.
Same read-out and setting: next, B3: 1e-09 M; B4: 8.2e-10 M.

A further test shares this target.
Assay: not given
This is another data set of the same source.
In the case of B1, the IC50 (read off the curve) was 0.0006 nM.
In turn, B4 had an IC50 (read off the curve) of 0.0009 nM.

Another test has the same target.
Assay: not given
The source holds these as a separate data set.
For B2, the IC50 (read off the curve) was found to be 0.0005 nM.

The target of another test is T2, biotinylated human IL-33 (human). Description: competitive ELISA, biotin-huIL-33 to coated hST2-Fc. (In general: An ELISA detects its analyte on a solid surface through an enzyme-linked reagent.)
The term IC50 denotes the concentration that gives 50% inhibition. A lower IC50 goes with greater potency in that assay. The molecule B1 registered an IC50 of 0.22 nM and a Maximum Blocking of 77%.
The matching figures for B2: 0.092 nM and 78%.
The matching figures for B3: 0.41 nM and 77%.
B4 yielded a concentration for half-maximal inhibition (IC50) of 0.97 nM and a Maximum Blocking of 73%.

For the next test, the target named is T1, human IL-33 (R&D Systems, #3625-IL-010/CF) (human).
Assay: not given
This is another data set of the same source.
For the molecule B1, the Ph-p38 MFI at 0.4 nM Ab (500 pM human IL-33, primary basophils) turned out to be 113 MFI.
Same read-out and setting: next, B2: 105 MFI.
Take B3: the Ph-p38 MFI at 0.4 nM Ab (500 pM human IL-33, primary basophils) worked out at 111 MFI.
The same measure, in the same setting: with B4 the figure was 132 MFI.

The next test has the same target. Description: SPR Biacore T200, 25 C.
Molecule B1 had a Kd of 0.839 nM, a koff of 0.000806 s⁻¹, an on-rate (kon) of 960000 M⁻¹ s⁻¹ and a t1/2 of 14 min.
B2 yielded a Kd of 0.67 nM, a dissociation rate constant (koff) of 0.00039 s⁻¹, an on-rate (kon) of 581000 M⁻¹ s⁻¹ and a t1/2 of 30 min.
B3 returned a Kd of 0.525 nM, a koff of 0.000328 s⁻¹, an on-rate (kon) of 626000 M⁻¹ s⁻¹ and a t1/2 of 35 min.
The molecule B4 yielded a dissociation constant Kd of 0.56 nM, a koff of 0.001 s⁻¹, an on-rate constant (kon) of 1.79e+06 M⁻¹ s⁻¹ and a t1/2 of 12 min.

A further test shares this target.
Assay: not given
This is another data set of the same source.
Take B1: the IC50, IL-33-induced phospho-p38 in primary human basophils, 500 pM hIL-33 worked out at 5.7e-13 M.
On the same count and under the same terms, next, B2: 4.8e-13 M.
Molecule B3 came in with an IC50, IL-33-induced phospho-p38 in primary human basophils, 500 pM hIL-33 of 2e-12 M.
As to B4, the IC50, IL-33-induced phospho-p38 in primary human basophils, 500 pM hIL-33 turned out to be 9.1e-13 M.

The target in another test is human ST2L on HEK-BLUE IL-33/IL-1beta cells (human) (UniProt Q01638).
human ST2L on HEK-BLUE IL-33/IL-1beta cells (human), sequence (Q01638 19-556 limits assumed): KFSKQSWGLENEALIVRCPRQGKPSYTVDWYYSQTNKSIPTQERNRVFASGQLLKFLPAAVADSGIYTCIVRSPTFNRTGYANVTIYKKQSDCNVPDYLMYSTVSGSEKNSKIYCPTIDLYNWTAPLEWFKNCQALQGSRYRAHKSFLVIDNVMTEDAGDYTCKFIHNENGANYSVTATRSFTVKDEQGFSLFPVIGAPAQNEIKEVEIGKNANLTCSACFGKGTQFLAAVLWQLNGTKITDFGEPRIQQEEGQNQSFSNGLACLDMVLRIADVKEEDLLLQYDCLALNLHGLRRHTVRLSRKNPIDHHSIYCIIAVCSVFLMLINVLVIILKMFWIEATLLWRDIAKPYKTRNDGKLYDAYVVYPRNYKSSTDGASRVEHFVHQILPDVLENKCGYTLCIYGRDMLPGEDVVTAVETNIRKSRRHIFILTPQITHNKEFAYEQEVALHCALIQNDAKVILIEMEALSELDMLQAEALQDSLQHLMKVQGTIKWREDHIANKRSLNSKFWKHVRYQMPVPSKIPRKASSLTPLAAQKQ
Assay: not given
The source holds these as a separate data set.
On to B5, for which the EC50 (SEAP reporter OD 620, HEK-BLUE IL-33/IL-1beta cells) was 0.0087 nM.

The target in the next test is T1, human IL-33 (R&D Systems, #3625-IL-010/CF) (human).
Assay: not given
The source holds these as a separate data set.
B3 returned an IC50 (read off the curve) of 0.002 nM.
